In patent publication US20210041458A1, “Lectin Assay For Assessing Glycoforms As An Early Marker In Disease” (Baruch S. Blumberg Institute, priority 2009, published 2021):
Where a chain is given by its changes, count along the chain named. Names may count otherwise. “Also recorded” adds a separate entry of the source.

Experiments:
[1] = Selectivity for fucose linkage; assay type: binding
[2] = tested on: IgG0 ligand; assay: Competition (indirect) ELISA: unbiotinylated AAL proteins against biotinylated AAL binding to IgG0 in serum; design: species or system human; settings: for decrease in signal output versus control: compared with commercial (Vector) AAL
Protocol: 96 well plates are coated with sodium periodate (NaIO4) treated mouse IgG (1.0 ug/well). 3 ul of serum from a patient with cirrhosis (Gish 342) or serum from normal donors (Sigma) were diluted to 100 ul and added to antibody coated wells. Plates are washed and then incubated at room temperature for 30 minutes/shaking with equivalent amounts of either unbiotinylated commercial (Vector) AAL, unbiotinylated recombinant 10×-His tagged (rAAL 10×), or unbiotinylated recombinant 10×-His tagged mutant AAL (rAAL N129Q, N224Q)). Equivalent amounts of biotinylated AAL was then added to each well and incubated for 1 hour at room temperature/shaking. Plates are washed and incubated with streptavidin-800-IRDye as previously described. Plates are washed and fluorescence quantified using a LiCor Odyssey machine. Control samples measured biotinylated AAL binding to IgG0 in the absence of unbiotinylated AAL.
Competition experiments provide an indirect ELISA for measuring the ability of unbiotinylated commercial (Vector) and unbiotinylated rAAL proteins to interfere with binding of biotinylated AAL to the IgG0 ligand. It is a qualitative indication of the relative affinities of the untagged AAL proteins for the IgG0 ligand.

[3] = Surface plasmon resonance, tryptophan fluorescence and enzyme linked lectin assays; assay type: binding; settings: rAAL from bacteria, isolated by nickel affinity chromatography
Protocol: Quantitative equilibrium binding of mutant and wild-type AAL for the selection ligand and other L-fucopyranosyl oligosaccharides are determined by BIAcore analysis and enzyme linked lectin assays (Oiausson et al).

[4] = multivalent; compared to other lectins; cited from earlier work
[5] = tested on: IgG0 ligand; assay: IgG0 ligand binding to AAL proteins coated on nickel NTA plates, fluorescence readout; design: species or system human; settings: FIG. 2
Protocol: Equal amounts of recombinant AAL (wild type or mutants) containing 10× Histidine tags were coated to nickel NT A plates and incubated with increasing amounts of IgG0 ligand (X axis). Un tagged, commercially purchased AAL (AAL-V) was also coated to nickel NT A plates or on high affinity binding ELISA plates (AAL-Vc) and incubated with increasing amounts of IgG0 ligand. Plates were washed and incubated with fluorescently tagged anti-human lgG, washed and read in a fluorescence detector. Increasing relative fluorescence indicates higher binding affinity.

[6] = serum from a cirrhotic patient (Gish 342), FIG. 3

B1: N224Q: mutant Aleuria aurantia lectin with N224 changed to glutamine (protein, UniProt P18891 2-313, looked up, variant N224Q)
Fucose-specific lectin: PTEFLYTSKIAAISWAATGGRQQRVYFQDLNGKIREAQRGGDNPWTGGSSQNVIGEAKLFSPLAAVTWKSAQGIQIRVYCVNKDNILSEFVYDGSKWITGQLGSVGVKVGSNSKLAALQWGGSESAPPNIRVYYQKSNGSGSSIHEYVWSGKWTAGASFGSTVPGTGIGATAIGPGRLRIYYQATDNKIREHCWDSNSWYVGGFSASASAGVSIAAISWGSTPQIRVYWQKGREELYEAAYGGSWNTPGQIKDASRPTPSLPDTFIAANSSGNIDISVFFQASGVSLQQWQWISGKGWSIGAVVPTGTPAGW
modifications: 10xHis tag
notes: mutant Aleuria aurantia lectin with N224 changed to glutamine
With B1 the “selectivity for the 1-6 linkage against outerarm linkages” value [1] was “more selective for the 1-6 linkage than outerarm”.

B2: rAAL (N129Q, N224Q): recombinant 10×-His tagged mutant AAL with both N129Q and N224Q (protein, UniProt P18891 2-313, looked up, variant N129Q N224Q)
Fucose-specific lectin: B1 Fucose-specific lectin with N129Q
modifications: 10xHis tag
notes: recombinant 10×-His tagged mutant AAL with both N129Q and N224Q
For B2, the “decrease in signal output versus control” value [2, 6] was “greater decreases in signal output versus control”.

B3: rAAL 10×: unbiotinylated recombinant 10×-His tagged wild-type AAL (protein, UniProt P18891 2-313, looked up)
Fucose-specific lectin: B1 Fucose-specific lectin with Q224N
modifications: 10xHis tag
notes: unbiotinylated recombinant 10×-His tagged wild-type AAL
For B3, the “decrease in signal output versus control” value [2, 6] was “greater decreases in signal output versus control”.

B4: rAAL: recombinant AAL produced in and isolated from bacteria using nickel affinity chromatography (protein, UniProt P18891 2-313, looked up)
Fucose-specific lectin: B1 Fucose-specific lectin with Q224N
modifications: His tag
For B4, the “affinity for the IgG0 ligand compared with commercially available AAL” value ([2]; Example 1) was “higher affinity”, the “affinity in cirrhotic patients compared with controls” value ([2]; serum samples, FIG. 3) was “significantly higher affinity” and the “binding affinities for fucosylated oligosaccharides compared with commercially prepared AAL” value [3] was “substantially higher binding affinities”.

B5: AAL: 312 amino acid lectin with five binding sites for L-fucose or L-fucose-linked oligosaccharides (protein, UniProt P18891 2-313, looked up)
Fucose-specific lectin: B1 Fucose-specific lectin with Q224N
For B5, the “binding affinity for carbohydrate ligands” value [4] is given as “micromolar; also recorded: micrormolar”.

B6: commercial (Vector) AAL: untagged, commercially purchased AAL (Vector), eluted with L-fucose in manufacture (protein, UniProt P18891 2-313, looked up)
Fucose-specific lectin: B1 Fucose-specific lectin with Q224N
With B6 the signal output ([2]; serum from a cirrhotic patient (Gish 342), control ~35, FIG. 3) was ~20.

B7: AAL M1(N129Q): recombinant 10× His-tagged mutant Aleuria aurantia lectin with N129 changed to glutamine (protein, UniProt P18891 2-313, looked up, variant N129Q)
Fucose-specific lectin: B1 Fucose-specific lectin with N129Q, Q224N
modifications: 10xHis tag
notes: recombinant 10× His-tagged mutant Aleuria aurantia lectin with N129 changed to glutamine
In the case of B7, the “Limit of Detection” value ([5]; IgG0 ligand) is reported as 10 ng/mL, the “improvement of the Limit of Detection” value ([5]; IgG0 ligand) is reported as 10-100 fold and the “signal to noise ratio” value ([5]; increasing IgG0 ligand) is reported as “highest signal to noise ratio”.
